This experiment has as its target Biotinylated human ACE2 (angiotensin-converting enzyme 2) (human) (UniProt Q9BYF1). Kind of experiment: SPR.

Usually Kd stands for the concentration at which binding is half-saturated. A high value points to lower affinity. As to “Trimer spike of SARS-CoV-2, furin cleavage site deleted and two stabilizing mutations, C-terminal His-tag (domain or fragment)”, the Kd is 0.7 nM.

(Values after publication PMC8227597.)
